Measured values reported in article PMC5703498, “Plant-type phytoene desaturase: Functional evaluation of structural implications” (PLoS ONE, 2017).
Where a chain is given by its changes, count along the chain named. In names and notes the source's numbering stands.

B1: Phytoene desaturase (OsPDS-His6) (Oryza sativa Indica Group) (protein)
chain: AGQLSSFFRNSEQPTKPLQVVIAGAGLAGLSTAKYLADAGHKPILLEARDVLGGKIAAWKDEDGDWYETGLHIFFGAYPNIQNLFGELGINDRLQWKEHSMIFAMPNKPGEFSRFDFPETLPAPLNGIWAILRNNEMLTWPEKVKFALGLLPAMVGGQAYVEAQDGFTVSEWMKKQGVPDRVNDEVFIAMSKALNFINPDELSMQCILIALNRFLQEKHGSKMAFLDGNPPERLCMPIVDHVRSLGGEVRLNSRIQKIELNPDGTVKHFALTDGTQITGDAYVFATPVDILKLLVPQEWKEISYFKKLEKLVGVPVINVHIWFDRKLKNTYDHLLFSRSSLLSVYADMSVTCKEYYDPNRSMLELVFAPAEEWVGRSDTEIIEATMQELAKLFPDEIAADQSKAKILKYHVVKTPRSVYKTIPDCEPCRPLQRSPIEGFYLAGDYTKQKYLASMEGAVLSGKLCAQSVVEDYKMLSRRSLKSLQSEVPVAS
B2: Phytoene desaturase (OsPDS-His6) (Oryza sativa Indica Group; R300S) (protein)
chain: B1 chain with R213S

Key:
Format in all cases: biochemical, Oryza sativa
[1] = substrate: CC(C)=CCC/C(C)=C/CC/C(C)=C/CC/C(C)=C/C=C\C=C(/C)CC/C=C(\C)CC/C=C(\C)CCC=C(C)C; test: Michaelis-Menten kinetics of purified enzyme in liposome assay (KM), HPLC; details: FAD hydrophobic substrate cavity, C11-C12 near the flavin
[2] = substrate: CC(C)=CCC/C(C)=C/CC\C(C)=C/C=C/C(C)=C/C=C\C=C(/C)CC/C=C(\C)CC/C=C(\C)CCC=C(C)C; test: as above; details: FAD competes with phytoene at the active site
[3] = substrate: CCCCCCCCCCC1=CC(=O)C(C)=C(C)C1=O; test: Michaelis-Menten kinetics of purified enzyme in liposome assay (KM); details: FAD electron acceptor; same substrate cavity as the carotene, successively occupied, near the FAD
[4] = substrate: CC(C)=CCC/C(C)=C/CC/C(C)=C/CC/C(C)=C/C=C\C=C(/C)CC/C=C(\C)CC/C=C(\C)CCC=C(C)C; test: Michaelis-Menten kinetics of purified mutant in liposome assay (KM); details: FAD hydrophobic substrate cavity
[5] = substrate: CCCCCCCCCCC1=CC(=O)C(C)=C(C)C1=O; test: as above; details: FAD electron acceptor; same substrate cavity as the carotene

Protein	Km [1]	Km [2]	Km [3]	Km [4]	Km [5]
B1	53.9 ± 18.1 mM	66.8 ± 20.7 mM	1.3 ± 0.2 mM	–	–
B2	–	–	–	4.5 ± 2.6 mM	0.4 ± 0.1 mM
